The results in this text go back to patent CN116041515A (NANJING IASO BIOTHERAPEUTICS TECH CO LTD, dated 2023).

For assay [1], the target named is T1, Streptavidin, Pierce 21125 (UniProt P22629 37-163, limits assumed).
T1 construct: Control protein coated on the plate; also called SA; Strepavidin
As to the kind of experiment: ELISA with purified IgG-form antibody. On the technique in general: ELISA stands for enzyme-linked immunosorbent assay.

The target in assay [2] is T2, human-IL10-his-Bio, Kactus IL1-HM410B (human, UniProt P22301 19-178, biotinylated).
T2 construct: Unrelated control antigen; also called Kactus-IL10-Bio-his; not shown: his tag and biotin label
T2 sequence (P22301 19-178): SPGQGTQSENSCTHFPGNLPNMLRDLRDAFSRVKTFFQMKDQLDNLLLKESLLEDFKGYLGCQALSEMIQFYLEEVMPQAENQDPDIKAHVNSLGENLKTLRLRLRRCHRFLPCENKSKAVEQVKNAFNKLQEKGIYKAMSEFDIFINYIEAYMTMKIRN
As to the kind of experiment: ELISA with purified IgG-form antibody.

Assay [3] concerns the target T3, Recombinant biotinylated Human BAFF-R Protein, Kactus BAF-HM40RB (human, UniProt Q96RJ3 1-78, biotinylated).
T3 construct: Bought; also called Kactus BAFF-R-his-Bio; Kactus BAFFR-his bio; not shown: his tag and biotin label
T3 sequence (looked up): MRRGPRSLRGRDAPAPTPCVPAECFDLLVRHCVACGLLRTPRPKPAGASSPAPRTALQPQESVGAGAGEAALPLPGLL
As to the kind of experiment: BLI, IgG on the sensor, antigen 100 to 6.25 nM, 1:1 model.

Assay [4] addresses T4, Recombinant biotinylated Human CD19 Protein, Kactus CD2-HE121 (human, UniProt P15391 20-291, biotinylated).
T4 construct: Unrelated control antigen; also called Kactus-CD19-Fc; not shown: Fc by the short name
T4 sequence (looked up): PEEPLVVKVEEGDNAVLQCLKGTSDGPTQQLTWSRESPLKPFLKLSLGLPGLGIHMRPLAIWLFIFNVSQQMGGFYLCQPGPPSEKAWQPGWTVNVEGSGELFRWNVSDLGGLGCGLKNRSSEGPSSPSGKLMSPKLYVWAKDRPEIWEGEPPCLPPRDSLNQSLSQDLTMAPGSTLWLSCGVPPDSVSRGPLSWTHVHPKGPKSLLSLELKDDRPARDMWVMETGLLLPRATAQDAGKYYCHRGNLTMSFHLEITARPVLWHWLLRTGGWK
As to the kind of experiment: phage ELISA.

In assay [5] the target is T5, Biotinylated Human CD27 Ligand, HIS, Avitag, ACRObiosystem CDL-H82Q9 (human, UniProt P32970 39-193, limits assumed, biotinylated).
T5 construct: Unrelated control antigen; also called ACRO-CD70-his; Acro-CD70-his; not shown: HIS tag and Avitag
T5 sequence (looked up): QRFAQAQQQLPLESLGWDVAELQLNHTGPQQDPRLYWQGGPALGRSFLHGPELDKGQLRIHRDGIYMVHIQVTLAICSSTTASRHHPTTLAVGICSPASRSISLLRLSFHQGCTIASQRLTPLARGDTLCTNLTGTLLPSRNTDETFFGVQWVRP
As to the kind of experiment: phage ELISA.

The target in assay [6] is T1, Streptavidin, Pierce 21125. As to the kind of experiment: phage ELISA.

T1 sequence (P22629 37-163 limits assumed): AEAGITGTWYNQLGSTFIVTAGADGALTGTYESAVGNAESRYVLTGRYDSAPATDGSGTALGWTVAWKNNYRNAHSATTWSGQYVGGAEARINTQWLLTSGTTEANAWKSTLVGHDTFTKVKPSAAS

B1: Clone 10 IgG (Fc fusion)
chain: QSALTQPASVSGSPGQSITISCTGTSSDVGGYNYVSWYQQHPGKAPKLMIYEVSNRPSGVSNRFSGSKSGNTASLTISGLQAEDEADYYCSSYTSSSTYVFGTGTKVTVLGSRGGGGSGGGGSGGGGSLEQITLKESGPTLVKPTQTLTLTCTFSGFSLSTSGVGVGWIRQPPGKALEWLALIYWDDDKRYSPSLKSRLTITKDTSKNQVVLTMTNMDPVDTATYYCARYAGQYSGMWPWDYWGQGTLVTVSS
notes: also called anti-BAFF-R IgG; not shown: human IgG4 Fc
With B1, the binding result in assay [1] is on record as “no binding”. Further, in assay [2], the binding result is recorded as “no binding”. Moreover, in assay [3], the Kd turned out to be 0.762 nM, the koff is 8.72e-05 s⁻¹ and the kon worked out at 114000 M⁻¹ s⁻¹.

B2: Clone 10 (phage-displayed scFv monoclonal) (scFv)
scFv: QSALTQPASVSGSPGQSITISCTGTSSDVGGYNYVSWYQQHPGKAPKLMIYEVSNRPSGVSNRFSGSKSGNTASLTISGLQAEDEADYYCSSYTSSSTYVFGTGTKVTVLGSRGGGGSGGGGSGGGGSLEQITLKESGPTLVKPTQTLTLTCTFSGFSLSTSGVGVGWIRQPPGKALEWLALIYWDDDKRYSPSLKSRLTITKDTSKNQVVLTMTNMDPVDTATYYCARYAGQYSGMWPWDYWGQGTLVTVSS
notes: the phage coat protein fusion is not described; also called #10号克隆
In the case of B2, the binding result in assay [4], in assay [5] and in assay [6] was “no binding” throughout.

Broadly, the Kd is the concentration at which binding is half-saturated. For orientation: koff means a measure of how fast the partners let go of each other. The term kon denotes the rate constant with which the complex forms.
